The series can be described thus: soluble fraction after stress (log2 fold change); higher = more stays soluble; pooled small domains, quantitative proteomics. Particulars: stress: 75 degC.
“HMGIAKYRQVTEWIQNRIATGELNRGDQIESENDISRTFGISRQTVRHALGLLEQQGILTRIQGRGTFVRD”: the “soluble fraction (log2)” value was -1.45.
Under “HMGIFDIIQEINRQGVTVLLIEQNANMALKIADVGYVLETGRISLTGSGRELLANEAVKKAYL” stands -1.29.
On to “HMGIKYTNQRVEILNFLKDNLSHPTVDDVYEGVKKKLTRISKATVYQNLKFLASKGLIQEVNIKGVSRFEP”, for which the “soluble fraction (log2)” value is -1.98.
As to “HMGIRQGKVTSTFVNVRSGASTANAKVGELHKGDVVSLIEKVANFWRIGPGQFVSADYIQVLAS”, the “soluble fraction (log2)” value is -2.07.
The value for “HMGIRYQLADDVTDEQITAMTGKKAKIAAAIKAAGSAVSKMNVAGEMGYDKQNPINKDFMELVDAGIIVPS” was -0.0507; that for “HMGISEKVINIIETYTMIARKKYPSVKSLAEHFNVSERTVHRYLEIIKMIDVVDYDREKKGYFFPYGDR” was -3.08; that for “HMGISSESIKTFIREIVENEDPKAPLSDQTMVELLAERGIDISRRTVAKYRDEMNLPSSSKRKR” was 0.87.
The value for “HMGKAMIDWEREQSILRILLRQKALTTEQAREVYQDGMREDLSALEMGVQRGYFTHEQLREATGGE” was -0.278; that for “HMGKASNEVYEVISSKIRTGEWAPGYKLPSEPTLAEEFGVSRATVREALQELISRGRIKREQGRGTYVLH” was -0.0316; that for “HMGKAVTLEEARAIIQAKVPGASPDMIQIWEEHGDGRGRYEGELSYNNMKYEFEMDPKTGIIFDWNA” was -0.0538.
Under “HMGKEDISQINKLYQNQILDYETYIDTLNSFNIDTKSKDFKNLLDLFIKKSISFETFNKGIINIHNKS” stands 0.328.
Turning to “HMGKFMVQVGAFSRINGAEITRTKYDNLGTHKAIIKNLDGMNRVFLTGFLSEDEARDFIASSNLKGAFIIR”, the “soluble fraction (log2)” value is -2.13.
As to “HMGKGVDKIMKMADDYSYGKIAGKTVDVMTAKLFQAAYNKAPQKAKDKVDKMNEKQLYIFMMNLWKRF”, the “soluble fraction (log2)” value was -0.768.
The value for “HMGKIILLFSDDDGVFDTALYRVRNYDGHRFAQSLGNAEMKWRHSEDEYFDFVLTSLREDGYDIEEIE” was -1.18; that for “HMGKIINMSKVKQVLRLHTQGVSNRRIALDLGLYKGTVNSYIRKIKDHGYDIAEVLKLDDPVLESKLFA” was -0.335.
The value for “HMGKKGPELNDNEKIIFNIISKENSMNLDDLKNRTELSNKQWDKAIKGLRSHELVNIEKIDDQLLIHL” was 0.0386.
On to “HMGKKQLVVDLQSIITDVPAALKSYGLEIGQDGKSLIYTYDTKGERTGITTLLNDLQKAGLQMTDMKTQQ”, for which the “soluble fraction (log2)” value was -0.0104.
In the case of “HMGKPTPASQVATRWLAGDLPETLPVAGPAPSFETLARSVSTDFHPRAVLQELLRLGVAEEADGRVRLLK”, the “soluble fraction (log2)” value was -0.212.
The value for “HMGKQPLYEQLVDLLRDRIENDMETGELLPSERKLAHHFGLSRTTVRLAMDRLETLGLITRVHGKDTFVAE” was -1.52.
Turning to “HMGKREKTKVANRQAILVAARAVFAELGYEAATVRDIIRGTDLASGTFYNYFKSKEEVFDALADDGA”, the “soluble fraction (log2)” value was -1.73.
With “HMGKSETALELIKRGHRLIADDAVEITRIGSTLSGTAPELIRNYLEVRGVGVIDVEKLFGVGAVQDSTQI”, the “soluble fraction (log2)” value came out at 0.0405.
With “HMGKSPLDALSAREKEVLTYITRGVSINDIAAVLYLSPKTVSTHKTNLMQKLGIENNADLILFGVNHGLND”, the “soluble fraction (log2)” value is -1.51.
As to “HMGLIAPMPGQIRSVAVSVGDVVKKGQTLLTMEAMKMEIRIQALKDGRVTALHAAQGQTVEGEQILIEVE”, the “soluble fraction (log2)” value is -2.32.
The value for “HMGLLEMPSERERQVLVLIAEGLSNKEIAARLYLTEGTVKNHAHSLYAKLNVTTRTLAIARARQLGI” was -1.37; that for “HMGLLLSQLDKDYQRYIDLADSTFRDNQLAVSRGWYNRALGVKAAEKYPKDQIAEIEKKIAERM” was -0.598.
Under “HMGLNEGLNEGQQKVIQHIQENEGIKVKEISLKLNMPIDTVDRHIRVLKNLNLIERRGSRKTGGYFISN” stands -0.461; under “HMGLNELQVKLNEAMQRLSLKHRTVVVMHDIEGIPHDEIAKIVGVSVGTIRSRLFYARRQLQADLGEY”, -2.32.
In the case of “HMGLNNVSDILRLDFNSFKKKFDKLPSGYKNSVVEQAALMIKSGELDSIKIKDYIEKSMGIELDI”, the “soluble fraction (log2)” value was -0.511.
For the sequence “HMGLQDLFLNSLRKSKTPVTMFLVKGVKLQGVVTWFDNFSVLLRRDGMSQLVYKHSISTIMP”, the “soluble fraction (log2)” value was -0.0352.
For “HMGLSARIAQRIHGLRTAQRMSLEALAARSGVSRSMISLIERNEASPTAVVLEKIATGLNVVLAALFDTP”, the “soluble fraction (log2)” value was -1.76.
As to “HMGLSNYEFNSISQTVKEKLEQGPLTLKALVDETAHLFAEDKVVSVVQWLIDQRDLAYDDHGLLQWKG”, the “soluble fraction (log2)” value is -0.792.
The value for “HMGLTLREKMGHVLEMLKGREFLPFVSLFTVEEGRIGVVVTFMSILELVKEGILDLVQTESFGPIHVKAR” was -0.541; that for “HMGMAETTARILQLLGLLQSRRGWSGQELAERLGVTTRSVRRDVERLRELGYPVHASAGHGGGYQLGA” was -2.18; that for “HMGMGDALRILFNQAMLIEREQYLQAGAYERNENPVNYANGFKAKTLNTRVGALEVAVPQTRDSAFYPSFL” was 0.0631.
As for “HMGMLATFVTSAKVPDDVVYAITKEVFENLDEFKKLHPALEGLTRETMLEGLTAPIHPGALKYYKEAGLM”, the “soluble fraction (log2)” value is -0.533.
On to “HMGMSQQKQSSTVRIIMQDISDANEGLMKMSQIIDAALAEGISETIVRNAISNLHRGGTIYESQTGTYQW”, for which the “soluble fraction (log2)” value was -0.196.
On to “HMGMTDEELNREEERVVAELEAKDEEELTIYNEEDLTFEETLDLPEGSLMRDRENGMIYLKVLDIWMPY”, for which the “soluble fraction (log2)” value is -0.575.
“HMGMTNRIKELRKAKGYRQEDLAAALGVSRQTIIAVENNKYNPTLELAMKLARHLQTTVEELFQL”: the “soluble fraction (log2)” value was -2.01.
The value for “HMGMVEFEIGERDHSEDVSRKLFEAGLIEDASDFNQYMIEKKMDDHLQTGKYQIPKGATKDEILELIVR” was 0.043; that for “HMGMYAEERHQAIASLARKHGRVSVAELAERFNVTSETIRRDLDSLARRGLLTRVHGGAVPVE” was 0.0144; that for “HMGMYFTEMRKNEGLIALNGVAESNKRVSDLMDNLKDSSSFDAADIKAVKSGSGDASSLMDFELLVT” was -0.0643.
As for “HMGNASQAARRQRIVDAALELLQDRPYDQIQMRDVAEGAGVALGTLYRYFPSKEQLFAHVLVE”, the “soluble fraction (log2)” value is -0.286.
Take “HMGNEMQVPNVAGKTVDEAIEIFNNMGLKVAAENKYAQSDDVKEGDVVKTDPSSGRNVKKGSEITLYISQG”: the “soluble fraction (log2)” value turned out to be 0.375.
The value for “HMGNEVMYRQDLSEQELLSFIKKYTGQDEVTHIVVGAPKQRDNTPSPVETKITPFVVQLKAQFPDVNVV” was 0.0976; that for “HMGNFNDMLKYLRVREKMSQAELADKLGVSKSTVGMYELGKREPDFETLEAIADLFNVDMNFLLGK” was -0.423; that for “HMGNHMSFKMWGEQLQEAFRALETYDTQKAKTILNELVRFPIDSDITKALKGIISNIDDMMA” was -0.881.
Under “HMGNLPPAVINARIKVSPAGRGVFVGFDKGSTSTEAKYADAIRGYLPNIEFNKDDHESVVTVPFNFR” stands -0.0124; under “HMGNTLAYSEFRQKVQEGAVKQVVLSEDRVTGELTNGDRFTANIVRDPELLKMLNDNNVKYDGKPT”, 0.154; under “HMGNVGEAIEALVKGFQEGNQFQTLLGVTGSGKTFTMANVIAALNKPTLIISHNKTLAAQLYLSLIHIS”, 0.277.
The value for “HMGNYRVIKWGMQGDDVKLMQQMLINRGYVLSATGKYASRTLKAIMAFQEANGLKADGIVGKRTWNKLL” was -2.78.
As for “HMGPAYEKIVANGQTFYRYNVKKGEGLMAVSRTFNVSVNDILKYNPSAASGLKDGQELLIPVIDDA”, the “soluble fraction (log2)” value was 0.16.
For the sequence “HMGPESKLTDAIKDYIYALYENLKGKSKFRNTIIEEVKKLYGVDISRESIRRVVNQKTDAETTENDDDEKA”, the “soluble fraction (log2)” value was 0.432.
The value for “HMGPKALLKIPGLQEVDAELLFKEGYKSISAVASADPEMLKAIPGVDEQKVTEWVTGAEQILSQQVNKGA” was 0.49; that for “HMGPKPVDMSPIPEGQRNQVLHDWMYGRAANHPENWGQIRSDALERGLKSGLKADEIHAITGSVARALGLE” was 0.0169.
On to “HMGPNPLTEREQEILQLARTGEPVARLAKRLFLSPGTVRNHLSSAIGKLGAANRVEAAQFATERGW”, for which the “soluble fraction (log2)” value was 0.0399.
With “HMGPSLDAVREQIRDLIAEEDKSAPYSDLSLVAELEKRGIHISRRTIAKYRGEMGIPNSDQRRYF”, the “soluble fraction (log2)” value is -0.0939.
Take “HMGPSSIVVYVSGAVKTPGVYTLAPGSRVDDAVRAAGGLSERAESAGTNLAAQLSDGEHVHVAAAGE”: the “soluble fraction (log2)” value was determined as 0.0915.
For “HMGPTGGLTPHIAIADKRASEAIEFYKQAFGAVEQVRMPAEDGVRLMHAHLLVNGSSLMMHDDFPEYSGQ”, the “soluble fraction (log2)” value is 0.133.
With “HMGPTLSPAEKRVFEVIPYDAILQDMVIRAAELPPGEVLAALTTLELKGLIKRLPGNLVMRRAR”, the “soluble fraction (log2)” value is -0.294.
Turning to “HMGPVALGVTDGATYFSSVTITFRRGTAVLDGEPIASGHTVYKSGAHSLTLTAGGKTRTIAFTMDT”, the “soluble fraction (log2)” value was -4.04.
The value for “HMGPVPLASAADMEKFYSHLQQVLDEVDFKDRTGSGHLMARLRRLFQRTVLDQNEINILRGILMAVQGRR” was -3.03; that for “HMGQGAASAPLRELGVDPVSEKQMVLKDGRFGPYVTDGETNASLRKGDEVETITDERASELLQMRRDAGPS” was -0.139.
Under “HMGQISDDGALKKLASEVLAANPQALADWKAGKQQAVSFLVGQAMKASKGRGDAALLGELIRAALD” stands 0.2; under “HMGQKASEVEKIFVELQQQIIRGDLPPGYRLVESQIAAQFGVSRTPARLAIERLATAGLVAHETNRGATVH”, -0.823.
The value for “HMGQKNEDESLAKFYVHKKGNQYGPYSLIQIREYLKNNSFSLDDLASWDGQSWKKISQIPNLN” was 0.12; that for “HMGQLTDKQILLFSGKLAYEPTFASKYSKAGESYDDFIIRISGDLTDPKKIKEYSPYLKELGF” was -0.35; that for “HMGQNYTIVKGDSLWKIAQKQYGDGSQWKKIYDANKDAIESAAKKYGKKSSDSGKWIYPGVSLII” was -0.112.
For the sequence “HMGQVEVPDVVGMTQERAITTLTEAKLVAQIQLTPADVAKGLVAAQSPRAGLKIGEGSFVTIEVSTGPVI”, the “soluble fraction (log2)” value was -0.306.
With “HMGQVFEGTFNRKANGKNSVTPAEGGEPVFIAERNSLHAMNGDLVKVSLLAKKKHQPREAQVIEILKRSD”, the “soluble fraction (log2)” value amounted to 0.128.

The values above are taken from the domain aggregation screens of Martell et al. (2025).
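Note: 20 min heating vs room temperature control held 20 min.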
